Changes are numbered by the printed parent chain. No end group written: not given here.
T1: angiopoietin-2 (Ang2) (human, UniProt O15123 68-496, limits assumed, biotinylated in Examples 22-24 (R&D cat#BT633))
T1 construct: also called rhAng2; recombinant Ang2
T1 sequence (looked up): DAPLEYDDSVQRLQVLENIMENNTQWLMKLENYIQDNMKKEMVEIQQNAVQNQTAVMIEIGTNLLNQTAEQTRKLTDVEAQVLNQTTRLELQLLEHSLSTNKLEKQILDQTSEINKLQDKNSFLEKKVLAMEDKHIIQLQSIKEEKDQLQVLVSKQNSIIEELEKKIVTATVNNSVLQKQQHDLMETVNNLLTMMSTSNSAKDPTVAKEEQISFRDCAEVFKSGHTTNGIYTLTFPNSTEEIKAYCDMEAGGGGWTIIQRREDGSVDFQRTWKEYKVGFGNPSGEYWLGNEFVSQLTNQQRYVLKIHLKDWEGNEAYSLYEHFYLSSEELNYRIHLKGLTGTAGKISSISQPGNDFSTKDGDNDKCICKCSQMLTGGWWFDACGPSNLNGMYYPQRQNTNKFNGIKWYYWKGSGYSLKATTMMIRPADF

B1: LM32 variant SEQ ID NO:88 expressed as MBP fusion protein (other, not shown: large carriers; small tags and cut ends)
chain: KSLSLSPGSGGGSMGAQTNFMPMDNDEGLLYEQFILQQGLE
modifications: not fully specified (N-terminus); also: fused to maltose binding protein carrier at N-terminus
B2: LM32 variant SEQ ID NO:97 expressed as MBP fusion protein (other, not shown: large carriers; small tags and cut ends)
chain: B1 chain with G28A, Q33E
modifications: not fully specified (N-terminus); also: fused to maltose binding protein carrier at N-terminus
B3: LM32 variant SEQ ID NO:90 expressed as MBP fusion protein (other, not shown: large carriers; small tags and cut ends)
chain: B1 chain with G28A
modifications: not fully specified (N-terminus); also: fused to maltose binding protein carrier at N-terminus
B4: LM32 variant SEQ ID NO:100 expressed as MBP fusion protein (other, not shown: large carriers; small tags and cut ends)
peptide: B1 chain with N25D, G28L
modifications: not fully specified (N-terminus); also: fused to maltose binding protein carrier at N-terminus
B5: LM32 variant SEQ ID NO:99 expressed as MBP fusion protein (other, not shown: large carriers; small tags and cut ends)
chain: B1 chain with N25Q, G28L
modifications: not fully specified (N-terminus); also: fused to maltose binding protein carrier at N-terminus
B6: LM32 variant SEQ ID NO:94 expressed as MBP fusion protein (other, not shown: large carriers; small tags and cut ends)
chain: B1 chain with G28A, L36Y
modifications: not fully specified (N-terminus); also: fused to maltose binding protein carrier at N-terminus
B7: LM32 variant SEQ ID NO:96 expressed as MBP fusion protein (other, not shown: large carriers; small tags and cut ends)
chain: B1 chain with Q33E
modifications: not fully specified (N-terminus); also: fused to maltose binding protein carrier at N-terminus
B8: LM32 variant SEQ ID NO:91 expressed as MBP fusion protein (other, not shown: large carriers; small tags and cut ends)
chain: B1 chain with G28L, L29T
modifications: not fully specified (N-terminus); also: fused to maltose binding protein carrier at N-terminus
B9: LM32 variant SEQ ID NO:93 expressed as MBP fusion protein (other, not shown: large carriers; small tags and cut ends)
chain: B1 chain with L36Y
modifications: not fully specified (N-terminus); also: fused to maltose binding protein carrier at N-terminus
B10: LM32 variant SEQ ID NO:142 expressed as MBP fusion protein (other, not shown: large carriers; small tags and cut ends)
chain: KSLSLSPGSGGGSMGAQTNFMPMDNDELLLYEQFI
modifications: not fully specified (N-terminus); also: fused to maltose binding protein carrier at N-terminus
B11: LM32 variant SEQ ID NO:143 expressed as MBP fusion protein (other, not shown: large carriers; small tags and cut ends)
chain: B10 chain with D26E
modifications: not fully specified (N-terminus); also: fused to maltose binding protein carrier at N-terminus
B12: Her-sL-RGD4C (bispecific antibody)
light (part 1 of 2): not shown
light (part 2 of 2): GGGSCDCRGDCFC
heavy: not shown
notes: also called C-terminal fusion of integrin αvβ3 targeting MRD with the ErbB2 antibody with the short linker peptide; not shown: kappa light chain constant region; heavy chain constant region
B13: Her-1L-RP (bispecific antibody)
light (part 1 of 2): not shown
light (part 2 of 2): SSGGGGSGGGGGGSSRSSSFYSCLESLVNGPAEKSRGQWDGCRKK
heavy: not shown
notes: also called Her-lL-RP; not shown: kappa light chain constant region; heavy chain constant region

target: T1, angiopoietin-2 (Ang2); assay: MBP fusion protein tested for binding to Ang2; method not restated (direct-binding ELISA in Example 19)
Protocol: For detection of direct binding of MRD-MBP fusions to Ang2, the following ELISA was performed. […] MBP fusion proteins were serially diluted in Blocking buffer and added to wells for 2 hours at RT. After washing (8×300 μl wash buffer), samples were treated with HRP-mouse anti MBP mAb (NEB, cat #E8038S), diluted 1:4000 in Blocking buffer. After incubation for 1 hour at RT, wells were washed (8×3000 wash buffer) prior to receiving 100 μl of TMB substrate (KPL Laboratories). Color development was stopped with 100 μl of H₂SO₄, and absorbance was read at 450 nm.

Question: How did the EC50 turn out when B1 was run?
Answer: Its EC50 is 1.04 nM.

Question: For B2, which EC50 is on record?
Answer: The EC50 was 0.426 nM.

Question: For B3, which EC50 is on record?
Answer: Its EC50 is 0.182 nM.

Question: For B4, which EC50 is on record?
Answer: The EC50 was 0.24 nM.

Question: With B5 as the binder, how does the EC50 read?
Answer: The EC50 was 0.383 nM.

Question: B6 was tested. Which EC50 did it give?
Answer: Its EC50 is 0.392 nM.

Question: B7 was tested. Which EC50 did it give?
Answer: Its EC50 is 0.922 nM.

Question: B8 was tested. Which EC50 did it give?
Answer: The EC50 was 1.42 nM.

Question: How did the EC50 turn out when B9 was run?
Answer: Its EC50 is 0.902 nM.

Question: With B10 as the binder, how does the EC50 read?
Answer: The EC50 was 1.08 nM.

Question: For B11, which EC50 is on record?
Answer: The EC50 was 20.7 nM.

target: T1, angiopoietin-2 (Ang2); assay: ELISA, rhAng2 coated, MRD-MBP fusion detected with HRP anti-MBP mAb; EC50 from a 4 parameter fit

Question: PGSGGGSMGAQTNFMPMDNDELLLYEQFILQQGLE (other) [Lm32 KtoS] was tested. Which EC50 did it give?
Answer: The EC50 was 0.199 nM.

Question: How did the EC50 turn out when MGAQTNFMPMNDDELLLYEQFILQQGLE (other) [L1-7D MND] was run?
Answer: The EC50 was 0.411 nM.

Question: With MGAQTNFMPMHDDELLLYEQFILQQGLE (other) [L1-7D MHD] as the binder, how does the EC50 read?
Answer: Its EC50 is 17 nM.

Question: Which EC50 does the source give for MGAQTNFMPMGDDELLLYEQFILQQGLE (other) [L1-7D MGD] here?
Answer: The EC50 was 0.6 nM.

Question: With MGAQTNFMPMSDDELLLYEQFILQQGLE (other) [L1-7D MSD] as the binder, how does the EC50 read?
Answer: The EC50 was 1.38 nM.

Question: Which EC50 does the source give for MGAQTNFMPMTDDELLLYEQFILQQGLE (other) [L1-7D MTD] here?
Answer: The EC50 was 7.34 nM.

target: integrin αvβ3 (ELISA antigen) (UniProt P06756 31-992; P05106 27-718, limits assumed); assay: ELISA on coated antigen, absorbance at 405 nm, BSA-coated wells as control; single condition; the bar is labelled Antigen, taken as the target of the MRD of the construct
Sequence (P06756 31-992 limits assumed, chain 1 of 2): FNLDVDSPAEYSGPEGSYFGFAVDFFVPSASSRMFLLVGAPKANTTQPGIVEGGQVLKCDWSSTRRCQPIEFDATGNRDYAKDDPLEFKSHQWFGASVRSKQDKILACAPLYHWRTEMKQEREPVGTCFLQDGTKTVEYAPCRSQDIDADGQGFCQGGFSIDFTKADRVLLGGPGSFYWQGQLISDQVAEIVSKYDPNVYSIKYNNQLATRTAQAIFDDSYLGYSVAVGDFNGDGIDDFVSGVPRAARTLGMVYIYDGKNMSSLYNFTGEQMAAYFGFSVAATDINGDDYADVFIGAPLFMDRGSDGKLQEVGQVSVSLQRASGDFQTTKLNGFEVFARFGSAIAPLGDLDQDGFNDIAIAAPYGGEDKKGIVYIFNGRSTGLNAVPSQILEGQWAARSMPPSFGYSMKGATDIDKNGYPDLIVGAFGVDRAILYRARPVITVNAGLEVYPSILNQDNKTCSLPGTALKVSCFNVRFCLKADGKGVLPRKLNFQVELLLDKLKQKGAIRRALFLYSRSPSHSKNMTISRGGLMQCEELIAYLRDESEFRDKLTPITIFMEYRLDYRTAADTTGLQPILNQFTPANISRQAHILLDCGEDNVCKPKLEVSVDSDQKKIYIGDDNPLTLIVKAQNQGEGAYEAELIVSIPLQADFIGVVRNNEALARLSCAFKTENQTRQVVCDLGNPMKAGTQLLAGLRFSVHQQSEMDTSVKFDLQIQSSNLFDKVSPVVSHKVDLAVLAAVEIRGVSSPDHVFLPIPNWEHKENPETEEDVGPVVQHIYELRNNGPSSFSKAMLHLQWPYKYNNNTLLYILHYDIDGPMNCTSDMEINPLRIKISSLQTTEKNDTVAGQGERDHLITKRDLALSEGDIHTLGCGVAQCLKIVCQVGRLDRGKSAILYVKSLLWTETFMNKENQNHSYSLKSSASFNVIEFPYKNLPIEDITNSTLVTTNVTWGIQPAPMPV
Sequence (P05106 27-718 limits assumed, chain 2 of 2): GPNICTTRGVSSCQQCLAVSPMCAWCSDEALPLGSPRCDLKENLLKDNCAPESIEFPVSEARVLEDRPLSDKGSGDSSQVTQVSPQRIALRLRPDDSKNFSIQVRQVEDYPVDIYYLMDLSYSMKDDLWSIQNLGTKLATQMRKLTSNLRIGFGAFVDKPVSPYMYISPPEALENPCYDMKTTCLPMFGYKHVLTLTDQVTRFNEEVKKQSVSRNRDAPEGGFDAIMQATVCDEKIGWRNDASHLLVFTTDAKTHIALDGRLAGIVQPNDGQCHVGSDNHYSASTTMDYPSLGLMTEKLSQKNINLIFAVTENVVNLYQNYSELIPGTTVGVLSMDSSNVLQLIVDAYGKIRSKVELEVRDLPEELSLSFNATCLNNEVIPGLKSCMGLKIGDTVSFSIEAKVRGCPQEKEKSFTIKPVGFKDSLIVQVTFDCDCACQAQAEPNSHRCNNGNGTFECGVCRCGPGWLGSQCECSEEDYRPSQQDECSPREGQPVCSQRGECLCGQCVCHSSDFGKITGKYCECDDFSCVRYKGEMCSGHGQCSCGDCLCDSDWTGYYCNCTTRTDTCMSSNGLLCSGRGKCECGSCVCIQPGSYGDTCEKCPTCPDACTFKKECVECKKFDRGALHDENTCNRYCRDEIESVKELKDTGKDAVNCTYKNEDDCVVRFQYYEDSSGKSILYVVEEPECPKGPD

Question: Does B12 bind?
Answer: Result: no binding (tested: not shown)

target: T2, insulin-like growth factor-I receptor (IGF1R) (UniProt P08069 31-932, limits assumed); assay: ELISA on coated antigen, absorbance at 405 nm, BSA-coated wells as control; single condition
T2 construct: also called immobilized IGF-1R; IGR1R

Question: Does B13 bind?
Answer: Result: no binding (tested: not shown)
